# Reference: patent US20060257938A1, “Method of screening for drugs that block ligand binding to a lipid binding protein” (priority 2005, published 2006)
# Residue numbers refer to the chain shown, from its start. Where “and” joins values, the source holds several entries; their conditions need not be identical. Equal entries are not always repeated.
# B1: 51W2, 72A (protein, listed as Rattus norvegicus)
# chain: AFDGTWKVDRNENYEKFMEKMGINVVKRKLGAHDNLKLTITQEGNKFTVKWSSNFRNIDVVFELGVDFAYSAADGTELTGTWTMEGNKLVGKFKRVDNGKELIAVREISGNELIQTYTYEGVEAKRIFKKE
# modifications: PEPTIDE (1)...(131) wild-type rat intestinal fatty acid binding protein
# B2: 55I1, 72A (protein, listed as Rattus norvegicus)
# chain: B1 chain with W51E, F55I
# modifications: PEPTIDE (1)...(131) wild-type rat intestinal fatty acid binding protein
# B3: 55Q1, 72A (protein, listed as Rattus norvegicus)
# chain: B1 chain with W51E, F55Q
# modifications: PEPTIDE (1)...(131) wild-type rat intestinal fatty acid binding protein
# B4: 51Y1, 72A (protein, listed as Rattus norvegicus)
# chain: B1 chain with W51Y
# modifications: PEPTIDE (1)...(131) wild-type rat intestinal fatty acid binding protein
# B5: 55M1, 72A (protein, listed as Rattus norvegicus)
# chain: B1 chain with W51E, F55M
# modifications: PEPTIDE (1)...(131) wild-type rat intestinal fatty acid binding protein
# B6: 55R1, 72A (protein, listed as Rattus norvegicus)
# chain: B1 chain with W51E, F55R
# modifications: PEPTIDE (1)...(131) wild-type rat intestinal fatty acid binding protein
# B7: 55W2, 72A (protein, listed as Rattus norvegicus)
# chain: B1 chain with W51E, F55W
# modifications: PEPTIDE (1)...(131) wild-type rat intestinal fatty acid binding protein
# B8: 60C, 72A (protein, listed as Rattus norvegicus)
# chain: B1 chain with W51E, V60C
# modifications: PEPTIDE (1)...(131) wild-type rat intestinal fatty acid binding protein
# B9: 55P1, 72A (protein, listed as Rattus norvegicus)
# chain: B1 chain with W51E, F55P
# modifications: PEPTIDE (1)...(131) wild-type rat intestinal fatty acid binding protein
# B10: 60G, 72A (protein, listed as Rattus norvegicus)
# chain: B1 chain with W51E, V60G
# modifications: PEPTIDE (1)...(131) wild-type rat intestinal fatty acid binding protein
# B11: 55H2, 72A (protein, listed as Rattus norvegicus)
# chain: B1 chain with W51E, F55H
# modifications: PEPTIDE (1)...(131) wild-type rat intestinal fatty acid binding protein
# B12: 55K1, 72A (protein, listed as Rattus norvegicus)
# chain: B1 chain with W51E, F55K
# modifications: PEPTIDE (1)...(131) wild-type rat intestinal fatty acid binding protein
# B13: 55Y3, 72A (protein, listed as Rattus norvegicus)
# chain: B1 chain with W51E, F55Y
# modifications: PEPTIDE (1)...(131) wild-type rat intestinal fatty acid binding protein
# B14: 55N1, 72A (protein, listed as Rattus norvegicus)
# chain: B1 chain with W51E, F55N
# modifications: PEPTIDE (1)...(131) wild-type rat intestinal fatty acid binding protein
# B15: 60F, 72A (protein, listed as Rattus norvegicus)
# chain: B1 chain with W51E, V60F
# modifications: PEPTIDE (1)...(131) wild-type rat intestinal fatty acid binding protein
# B16: 55G1, 72A (protein, listed as Rattus norvegicus)
# chain: B1 chain with W51E, F55G
# modifications: PEPTIDE (1)...(131) wild-type rat intestinal fatty acid binding protein
# B17: 55S1, 72A (protein, listed as Rattus norvegicus)
# chain: B1 chain with W51E, F55S
# modifications: PEPTIDE (1)...(131) wild-type rat intestinal fatty acid binding protein
# B18: 55L1, 72A (protein, listed as Rattus norvegicus)
# chain: B1 chain with W51E, F55L
# modifications: PEPTIDE (1)...(131) wild-type rat intestinal fatty acid binding protein
# B19: 55A1, 72A (protein, listed as Rattus norvegicus)
# chain: B1 chain with W51E, F55A
# modifications: PEPTIDE (1)...(131) wild-type rat intestinal fatty acid binding protein
# B20: 55D1, 72A (protein, listed as Rattus norvegicus)
# chain: B1 chain with W51E, F55D
# modifications: PEPTIDE (1)...(131) wild-type rat intestinal fatty acid binding protein
# B21: 55T1, 72A (protein, listed as Rattus norvegicus)
# chain: B1 chain with W51E, F55T
# modifications: PEPTIDE (1)...(131) wild-type rat intestinal fatty acid binding protein
# B22: 55E, 72A (protein, listed as Rattus norvegicus)
# chain: B1 chain with W51E, F55E
# modifications: PEPTIDE (1)...(131) wild-type rat intestinal fatty acid binding protein
# B23: 60A, 72A (protein, listed as Rattus norvegicus)
# chain: B1 chain with W51E, V60A
# modifications: PEPTIDE (1)...(131) wild-type rat intestinal fatty acid binding protein
# Test: Probe fluorescence ratio response to palmitic acid relative to ADIFAB2
# Type: binding
# Details: response relative to ADIFAB2
# In short: (§1)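 Each fatty acid's response was expressed relative to ADIFAB2, the rI-FABP-L72A probe, as ΔR/ΔRreference. ΔR is the change in the background-corrected two-wavelength intensity ratio R=Fλ1/Fλ2 from its analyte-free baseline R0. Emission was read near about 420-480 nm for unbound and about 495-580 nm for FFA-bound probe.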
row,Molecule,DR/DR PA
1,B1,0.80
2,B2,0.77
3,B3,0.43
4,B4,0.72
5,B5,0.84
6,B6,0.30
7,B7,0.63
8,B8,1.04
9,B9,0.54
10,B10,0.19
11,B11,0.26
12,B12,0.27
13,B13,0.25
14,B14,0.22
15,B15,1.53 and 1.526
16,B16,0.18
17,B17,0.41
18,B18,0.63
19,B19,0.28
20,B20,0.10
21,B21,1.12
22,B22,0.17
23,B23,0.74 and 0.742

# Test: Probe fluorescence ratio response to oleic acid relative to ADIFAB2
# Type: binding
# Details: response relative to ADIFAB2
# In short: as §1
row,Molecule,DR/DR OA
1,B1,1.55
2,B2,0.90
3,B3,0.54
4,B4,1.38
5,B5,1.41
6,B6,0.39
7,B7,0.70
8,B8,1.34
9,B9,0.93
10,B10,0.24
11,B11,0.27
12,B12,0.30
13,B13,0.33
14,B14,0.27
15,B15,1.90 and 1.896
16,B16,0.19
17,B17,0.41
18,B18,0.82
19,B19,0.30
20,B20,0.10
21,B21,1.28
22,B22,0.21
23,B23,0.94 and 0.936

# Test: Probe fluorescence ratio response to linolenic acid relative to ADIFAB2
# Type: binding
# Details: response relative to ADIFAB2
# In short: as §1
row,Molecule,DR/DR LNA
1,B1,1.70
2,B2,0.89
3,B3,0.49
4,B4,1.44
5,B5,1.42
6,B6,0.37
7,B7,0.82
8,B8,1.36
9,B9,0.96
10,B10,0.24
11,B11,0.32
12,B12,0.35
13,B13,0.34
14,B14,0.30
15,B15,1.76 and 1.762
16,B16,0.23
17,B17,0.43
18,B18,0.72
19,B19,0.36
20,B20,0.12
21,B21,1.27
22,B22,0.21
23,B23,0.94 and 0.938

# Test: Probe fluorescence ratio response to arachidonic acid relative to ADIFAB2
# Type: binding
# Details: Arachidonic acid; response relative to ADIFAB2
# In short: as §1
row,Molecule,DR/DR AA
1,B1,1.69
2,B2,1.08
3,B3,0.60
4,B4,1.38
5,B5,1.40
6,B6,0.40
7,B7,0.77
8,B8,1.30
9,B9,1.01
10,B10,0.29
11,B11,0.36
12,B12,0.32
13,B13,0.47
14,B14,0.34
15,B15,1.79
16,B16,0.19
17,B17,0.48
18,B18,0.86
19,B19,0.33
20,B20,0.11
21,B21,1.26
22,B22,0.21
23,B23,0.79

# Same assay, conditions: arachidonic acid; response relative to ADIFAB2
row,Molecule,DR/DR AA
1,B15,1.792
2,B23,0.787

# Test: Probe fluorescence ratio response to linoleic acid relative to ADIFAB2
# Type: binding
# Details: response relative to ADIFAB2
# In short: as §1
row,Molecule,DR/DR LA
1,B1,1.77
2,B2,0.83
3,B3,0.47
4,B4,1.50
5,B5,0.97
6,B6,0.41
7,B7,0.79
8,B8,1.33
9,B9,1.05
10,B10,0.25
11,B11,0.38
12,B12,0.34
13,B13,0.32
14,B14,0.29
15,B15,1.68 and 1.684
16,B16,0.22
17,B17,0.42
18,B18,0.71
19,B19,0.34
20,B20,0.12
21,B21,1.25
22,B22,0.21
23,B23,0.98 and 0.977
